The values that follow come from PMC7494283 (Cell, 2020).

To fix the notation:
B1: S2A4 mAb (IgG1) (antibody, V domains shown)
VH: EVQLVESGGGLVQPGGSLRLSCAASGFTFSSYWMNWVRQAPGKGLEWVANIKQDGSEKYYVDSVKGRFTISRDNAKNSLFLQMNSLRAEDTAVYYCARVWWLRGSFDYWGQGTLVTVSS
VL: NFMLTQPHSVSESPGKTVTISCTGSSGSIASNYVQWYQQRPGSAPTTVIYEDNQRPSGVPDRFSGSIDSSSNSASLTISGLKTEDEADYYCQSYDSSNHVVFGGGTKLTVL
B2: S304 mAb (IgG1) (antibody, V domains shown)
VH: EVQLVESGGGLVQPGGSLRLSCAASGFTFSSYDMHWVRQTTGKGLEWVSTIGTAGDTYYPDSVKGRFTISREDAKNSLYLQMNSLRAGDTAVYYCARGDSSGYYYYFDYWGQGTLLTVSS
VL: DIEMTQSPSSLSAAVGDRVTITCRASQSIGSYLNWYQQKPGKAPKLLIYAASSLQSGVPSRFSGSGSGTDFTLTISSLQPEDFAIYYCQQSYVSPTYTFGPGTKVDIK
B3: S2H14 mAb (IgG1) (antibody, V domains shown)
VH: not shown
VL: NFMLTQPHSVSESPGKTVTISCTRSSGSIASNYVQWYQQRPGSSPTTVIYEDNQRPSGVPDRFSGSIDSSSNSASLTISGLKTEDEADYYCQSYDSSNQVFGGGTKLTVL

This assay deals with SARS-CoV RBD (SARS-CoV (human), isolate , UniProt P59594). Put plainly: ELISA. (ELISA stands for enzyme-linked immunosorbent assay.)
As for B1, the binding result is listed as “no binding”. To B2 belongs “binds”. Take B3: the binding result is listed as “no binding”.
